The values below come from PMC7253601, “Rules of Expansion: an Updated Consensus Operator Site for the CopR-CopY Family of Bacterial Copper Exporter System Repressors” (mSphere, 2019).

B1: wild type two-operator DNA (BLI) (dsDNA)
DNA 1: TAATTGACAAATGTAGATTTTAAGAGTATACTGATGAGTGTAATTGACAAATGTAGATTTT
DNA 2: AAAATCTACATTTGTCAATTACACTCATCAGTATACTCTTAAAATCTACATTTGTCAATTA
B2: Enterococcus hirae CopY E86D (natural protein)
chain: MEEKRVLIKISDSEWEVMRVIWTLGQANAQQITQILADSMDWKVATVKTLLGRLVKKEALWTEQEGKKFIYHPAVSEMENVRSATDNLFSHICAKRVGATIADLVEEATLTQEDIQQIMKQLNKKEPVETIECNCIPGQCECKKQ
notes: CopY, cop operon repressor, Enterococcus hirae; cloned from genomic DNA; the methods call the gene copR; The wild type was cut by TEV inside the protein and was used uncleaved; also called E. hirae cop repressor; cleaved E86D protein; source: recombinant (pMCSG7 vector), purified (IMAC, TEV cleavage, subtractive IMAC, SEC); not shown: His6, N-terminal, cleaved
B3: Streptococcus thermophilus CopY (natural protein, S. thermophilus, UniProt Q5M352 1-143, looked up)
chain: MLAISSAEWEVMRVLWAKGQATSSEIIEILAKKLDWSASTVKTLIGRLADKGYLTSQRQGRGFIYQASLGEDEAIFQALEAVFDKICLTKHSDLLGQLIAKTPMTQADVDKLQALLLAKVPVDQVVCDCVPGQCACGHHMEVN
notes: CopY (CopR-CopY family cop operon repressor), Streptococcus thermophilus; cloned from genomic DNA; also called S. thermophilus cop operon repressor; CopR-CopY; source: recombinant (pMCSG7 vector), purified (IMAC, TEV cleavage, subtractive IMAC, SEC); not shown: His6, N-terminal, cleaved
B4: SP_0530 (dsDNA)
DNA 1: ATTTGAGGAACAAATGTACGTTTATAA
DNA 2: TTATAAACGTACATTTGTTCCTCAAAT
B5: SP_1433 (dsDNA)
DNA 1: GTAATTATAACAGATGTATAATAGAAA
DNA 2: TTTCTATTATACATCTGTTATAATTAC
B6: SP_0090 2 (dsDNA)
DNA 1: GAGTATACTAATAATGTAATCGTTATC
DNA 2: GATAACGATTACATTATTAGTATACTC
B7: SP_2073 (dsDNA)
DNA 1: AAGGCGGAAACATGTGTCAATGACTTG
DNA 2: CAAGTCATTGACACATGTTTCCGCCTT
B8: SP_0045 (dsDNA)
DNA 1: GGTGAACTAACAGATGTTTACGAAATT
DNA 2: AATTTCGTAAACATCTGTTAGTTCACC
B9: SP_0090 1 (dsDNA)
DNA 1: TGATTTAGGACATTTGTTTGATAGTGG
DNA 2: CCACTATCAAACAAATGTCCTAAATCA
B10: SP_1863 (dsDNA)
DNA 1: ATGAATAAAACAATTGTAACACTCATC
DNA 2: GATGAGTGTTACAATTGTTTTATTCAT

Bounds are passed on as bounds.

One series deals with CopY (S. pneumoniae) (Streptococcus pneumoniae (TIGR4?)) (UniProt A0ACD7PQP7). Kind of series: BLI. The settings on record: BLI: 50 mM Tris pH 7.4, 150 mM NaCl, 4% glycerol, 1 mM TCEP, 0.1% BSA, 26 C; EMSA: Tris-borate without EDTA, 4 C, 5% PAGE.
Turning to 14 bases (14 of 21 repeat bases), the Kd (in general, the equilibrium constant for the complex coming apart) is greater than 3000 nM.

In turn, “16 bp (16 of 21 repeat bases kept: ATTGACAAATGTAGAT)” gave a Kd of 360 nM.

For 19 bp (19 of 21 repeat bases), the dissociation constant Kd came to 37.1 nM.

19 bp T to C (operator position 3) yielded a Kd of 40.4 nM.

full palindrome (A13C) returned a Kd of 39.6 nM.

E. hirae proximal operator: the Kd was determined as 164 nM.

Another series deals with T1, CopY (S. pneumoniae) (Streptococcus pneumoniae, UniProt A0ACD7PQP7 1-131). Kind of series: BLI; BLI: 50 mM Tris pH 7.4, 150 mM NaCl, 4% glycerol, 1 mM TCEP, 0.1% BSA, 26 C; EMSA: Tris-borate without EDTA, 4 C, 5% PAGE. The settings on record: protein: recombinant; tags: N-terminal 6xHis removed by TEV (pMCSG7; also tested uncleaved); chain copies: 2; label: 5' biotin on forward strand; blunt. A general note: In BLI a coated tip is dipped into the sample, and binding shifts an interference pattern.
B1: the Kd was 28.1 ± 0.2 nM.

The target of a further series is Streptococcus pneumoniae CopY (S. pneumoniae). Kind of series: SEC; Superdex 200; 20 mM Tris (pH 8), 200 mM NaCl, 1 mM TCEP; elution volume compared to an SEC standard (Bio-Rad); on ice or at 4°C.
Conditions: not given
On the technique in general: In gel filtration, larger molecules generally elute earlier.
In the case of “Streptococcus pneumoniae CopY (natural protein)”, the stoichiometry N – broadly, a count of units in the complex or per binding partner – was determined as 2.

A further series concerns the molecule itself. The series is described as above.
Conditions: not given
In the case of B2, the “stoichiometry N” value came to 2.

B3: the “stoichiometry N” value is 2.

For another series, the target named is T1, CopY (S. pneumoniae). Nature of the series: BLI; 3 uM CopY; BLI: 50 mM Tris pH 7.4, 150 mM NaCl, 4% glycerol, 1 mM TCEP, 0.1% BSA, 26 C; EMSA: Tris-borate without EDTA, 4 C, 5% PAGE. The settings on record: protein: recombinant; tags: N-terminal 6xHis removed by TEV (pMCSG7; also tested uncleaved); chain copies: 2; label: 5' biotin on forward strand; blunt.
With B4, the binding result is listed as “no binding”.

Regarding B5, the binding result was “no binding”.

B6: the binding result was “no binding”.

For the molecule B7, the binding result is given as “no binding”.

Regarding B8, the binding result is “no binding”.

In the case of B9, the binding result was “no binding”.

For B10, the binding result is reported as “no binding”.
